17 sequences from the DeepSol protein solubility set can be followed below.

This data set is described as follows: soluble on expression in E. coli; label from the status in PepcDB or PDB records.
With “MSYSKPLAYPSQKCVIKHMEVNSRFKLSHQSPSIRKIEKSTPLRIDSLTLKLDQCSVKINNILHTFRKEKLPKNMQLPQAFMCLMSKLFCGRRDPIQVKTLSIECKGSLQLPAGLCLKVSHLEILGSGVDKIADDLQPLLRGSKLQSITVNNDFNIHHPIFKTAHLLILKNPNKNLFRATAASNVMVKSTCQFLDLFDKIVELIRNWQSYGQKIGAIWNFSMRQEQFALLSLVQLRKLPGASYKGHEKFSESGRSIIIPIDNSAEVHAFVKKEQDDCNLNVIVRRRQF”, the “soluble on expression in E. coli” value is given as “soluble”. As for “MATDHIRYDVLARDALRGVLRHVLTDVAQHGLPGEHHFFITFQSKGDGVKLSPRLLAQYPEEMTVVLQHQFWDLVVTEDRFEVGLSFGGIPERLVVPFASIKSFFDPSVKFGLQFEAADEVDETGEADDGTELVTAAPAPVALPTSSATTDSSAPSDDEPPRSGEGAEVVRLDRFRKKLEHHHHHH”, the “soluble on expression in E. coli” value is “soluble”. To “GMFNESDAPQPPKVLSTPLEIAANLRQLQESHDPLIITFHDRSHRFQSYVVHVDRESNTLALDEMIPRDGEKFIENGEHFRVEGFHDGVRIAWECDHALKISEVDGHRCYSGPLPQEVTYHQRRNAFRAALKLSQLVDIILDGAHLKGNGAMRGKLLDISATGCKLRFEGNVEDRLQLGQVYERFKAGNPLGLVDTMVELRHLHYEERINTTFAGVRFHNLSGQAQRKIESFVYQLQREARRFDKDDY” belongs “soluble”; to “MPELSETAERSQSNTPLAMIMDDSDIDYQRFQELVASTDSLAILCHDNPDPDTLASALALEAIAKEWEVPTVDIVYGGTVTHQQNRAMINVLDIELTPIDQVSLSDYGLVAFVDHGIPGQNNSAVEEMTPDIIIDHHPTDGLQGQFVDLRPAVGATATLLTRYLEIFSIELEERLATALLFALHRETLDFNRETTSTEHAAACVLHPHADHNIIEELTNSVFTPETISGIGDAIANREVRGSCLVSSLGWIRERDAVPQAADYLLQLEGVSTTIVYGIVDDNVHLSGRTSNSQLHIGNVMEETFDQVGSAGGHHDMAGGQVPLGFIGSVDDGDDVAIDLINQSMMARLFGALEGWTET”, “not soluble”; to “MHMELRMVGRLSWITLFTLFLVGCSSAPDDSSPHSQVNDPLESFNRQMWTINYDYLDPYVVRPVSLFYVGYVPKPVRSGIANFLSNLDEPASMVNNLLMGNGTKAVDHFNRFWINTSFGLLGLIDIASEAGIKKYDDKAFSDAVGHYGVGNGPYLMVPGYGPYTVREVTDVVDGMYFPLAYLNIWAGVGKWALEGMETRAALVSQEALLQDSPDPYSLARDAYLQRQAFKAEIQVDDYDPEEEEYLDEYLNEGL”, “not soluble”.

For the sequence “MTENQNGKVDPVAIRELISQGIPMKRKESEIKRSQSEEQCVESECPNDEPMSKDFSRVSRRERRKSDKGDYESLFICRNTLKNRKTIYIAKELQDTLAEIVMSMRNRDMTIGIYVENIILHHLETYKDEINRLAEMKFRKLL”, the “soluble on expression in E. coli” value is “not soluble”. Take “MSLKIILVEDEENLARLLKEAIGDNFHSFTVAKDGIEGIEFFKKIRPDIVITDIMMPNLDGLKMAKELKRINPNIPIIILSAFSEKEKLLSAIDVGITKYFIKPFDAEELLEYISSITSRIENKILKLSDCYIFNKNTSSLYKNEKYIALSKNDIKFLYLLLDSKNRTVDDISIKEALWGGDASDERLRTFIKRFREKTSKMLIKNIKGFGYQLLLNEGHHHHHH”: the “soluble on expression in E. coli” value is recorded as “not soluble”. Consider “MGSDKIHHHHHHMSTRESRHPVVSRSQWLAARYYLWLHEKAFTHHRDALTAARRALPWVKVEQDYRFFGPNGALSLADLFAGRSQLLLYHFMFAEGWSEGCPGCSFLADHYDGANLHLAHHDVSLVAVSRAPYAEFQAFRQRMGWQFPWYSSHGSDFNEDFGVSVGSEGQRQYNYEPYEGNESELPGLSAFFREGDGSVYHTYSTYARGLDILVNTYNFLDIAPLGRNEGGTMDWVRHHDRYEGQPDKPHCCHR”, for which the “soluble on expression in E. coli” value is listed as “not soluble”.

For the sequence “SQYKNISEKIVHIIQQEFDTDLTLESIAGRLHYNPNYLSSIFRKEMKISFSEYLSSYRHHIAKNWLTETTMSVKEISEKLKYKNPQNFIRSFKKLEGITPGKYRELKNHS”, the “soluble on expression in E. coli” value is “soluble”.

Consider “MVQNDETQYIARILDGDTECFSAFLDRYSRPLYVLIVQIVGCSEDAEELVQDVFLKAFRCLGSYRGECRFSTWLYRIAYTTAVSATRKKKQEFLYIEENTINNVPDEKADDILYPTDDEERTARLIQAIDLLNVEEKALITLFYYEEKSIEEIGEVLKLSPGNVKVKLHRTRKKIYVLMNGKE”, for which the “soluble on expression in E. coli” value was “not soluble”. As for “MPWLLPREIAPLHQKALDRYLGSLTERLSDPNVDRNALVREELARLLYGRPYEELLEANPLAAMGLDPEGITFEAEYYAATDLEKFRRVKPLLWFWKVLDLTPLGQSVHSGVAIRRALAPFIFKRVGKNPKFFQNVEFSVGYNLELGDDVVVHRYVFLDDIGGIKIGDRTSLSDYVNVYSHTHHVLASPDVTLKETIIGSGVRITYHATVLAGVRIGDDAMVGTGAVVTKDIPPHAIALGIPARPVRYKVRHDCPYCRKGEPHPSDLVPKLPDRKGNPDYPDFLPPGFGTREAGS”, the “soluble on expression in E. coli” value was “soluble”.

Take “MDNKLDVFRRELVDVEGIPLFWSIAEHWSQVESFEARPDDILISTYPKSGTTWVSEILDLIYNNGDAEKCKRDAIYKRVPFMELIIPGITNGVEMLNNMPSPRIVKTHLPVQLLPSSFWKNDCKIIYVARNAKDVVVSYYYFYQMAKIHPEPGTWEEFLEKFMAGQVSFGPWYDHVKSWWEKRKEYRILYLFYEDMKENPKCEIQKILKFLEKDIPEEILNKILYHSSFSVMKENPSANYTTMMKEEMDHSVSPFMRKGISGDWKNQFTVAQYEKFEEDYVKKMEDSTLKFRSEI”: the “soluble on expression in E. coli” value is recorded as “soluble”. To “MGSDKIHHHHHHMARQNKRQSDDRELARKFEELLKEGTPGFFDVSVYESIIQYYLEGTKFRKAHRTCDIAMEQHPYSVEIMLLKVQVLMQMTQFEEALEILDRAQLYQPNDTDIQLLRANIMAQQDDFEGAIELLEEILTLAEEKDEIHYHMGVIYQDMGNFEESINHLKEAIMLNSQHEDAIYELSYSLEVLDRLEESIDFFKQLIEKDPYSHFAWFCLGVSYFKQGKLDEALDAYEFVIAINDKYSSAYYNIGECYVYKNEYEKALEYFFQTMDMEDKTADVFYNIGFCYEHLGMHPKAIEFYRKASKADAYFHEAYYGIGKCLEAQDKSYESIHFFKRALKLDEANAEYWLAKANAEYKTGNIISSLEAFEEACVLEPSNPEVWKNWSFVHYESGDMDKAIDLINAGIDEMPGNADLYYRAVAYLITAGRYKEAFNYLENALTLNFDSHTVLFEFFPKLETQKALFRIIDQYRNK” belongs “not soluble”; to “MGSDKIHHHHHHMDRSYRTPKAWLTKTSGFLQGYDYSLNPYVGCTFACSYCYVRKMPVALFHKGEWGDWVDIKQGVKETFSNELVRAKKRGRVHLFMSSSTDPYQPVEVEEKVTRSLLEVMADNPPDFLFVQTRSPLVTRDVDILQQLGKRVRVSLTIETDLESVRKAFAPKAPPIQGRKRALHALYQAGIPTQLTVAPILPSSDRFAESYVSIADQVCIDTFELGDGANGKRSRALRMPERLTELGYESWYEEAALEKVHQQFCAHFDESRVKLSQEGFLP”, “not soluble”. In the case of “MKIVDANVLLYAVNTTSEHHKPSLRWLDGALSGADRVGFAWVPLLAFVRLATKVGLFPRPLPREAAITQVADWLAAPSAVLVNPTVRHADILARMLTYVGTGANLVNDAHLAALAVEHRASIVSYDSDFGRFEGVRWDQPPALL”, the “soluble on expression in E. coli” value is listed as “soluble”. With “MTYDPKTAVKQDSFSGKEPFNILLLGTDTGAFGRKEVRGNSDTMILVTVNPAKKKLSLMSIPRDTMARMIGTDNFSVHKINAAYNIGGAKMAMRTTSKVLNVPIKYYISMNMGGMRKIVDGVGGVTVTPPLTFTYDGYTFTKGKTVHLNGSQALAYSRMRYDDPKGDYGRQLRQREVIMSVLEHALSFNTLKNLDSILGSVSTSLRTNLTFDSMVKISKNYRKCTNNMSSDYLHGVGAMIGDASYQVMSDRELQRTSNIVRNDLGLDSMDIDNNETYQNSMNSQFDWNSGDSNQVYYIYDPYTDELWNGDRAYLEHHHHHH”, the “soluble on expression in E. coli” value is “soluble”.

Turning to “MGSDKIHHHHHHMLSGSTQLMPSTVGLASAHLQYSASFFPTTAVYSLLFPDKSIIIGTVALGYAQTRPQDLPVTHILTKGNRTFKLSIASTPEQLEKGLKFRSSLNGDSGMLFNLGGEIYNVPFWMYKVNFPLDIFYLKDNVVTTAVYNAKPCYKNPCPIYKGKVANQVLELATGTANIKVGDRLNIQPLSSAKE”, the “soluble on expression in E. coli” value is recorded as “not soluble”.
